Measurements: the DeepSol protein solubility set

Experiment: soluble on expression in E. coli; label from the status in PepcDB or PDB records

Soluble on expression in E. coli, not soluble:
MATCLVEFAKSPPVFSPGEKVTGNVKMTIPDDEFKARKVRMEMIGKAYTYWEGNVRNNHTKIKNGDIARVRHNCADHKGKIVYCRFETIVWKSDGAKNDMPSGPHIFPFSFQLPHWAPPSFEGDLGFIRYFIKVEIDRPWKFDDKFITCLTVLPNIDLRLIPNSQVPSKKHVCEEFGAVLWKNGLVRMELRLPKQGFVCGENIPVTMIVDNKTSKSFKKISLRLVQRVTYTGFRDGFVNSHSQPCIGNEKEKITYATRLNAQTRVEERQISETNIDIKIDKNEKQEVEKPIPLPPLPPSTKTCEIIDVEYFLKVKMSTSGALKSAVKLELAFIIGTMPIDPERKYEYKKSVFGFAATSLKNRDVQKFAPLYPVFKFDE
MGSDKIHHHHHHMAEKFDAIVVGAGPAGNAAAYTMAKAGLSVLQLERGETPGTKNVQGAILYADALERIIPDFRDDAPLERHIIEQRMWVLDEKSFIGTNYRSDAFNSDQPNRYTILRAPFDKWFSGKVKEAGALVICETTVTELIQEGKKVIGVRTDREGGDIYADVVILADGVNSLLAKKAGFHGELEAKNVALAVKEIHFLPEEIVQSRFNIKGNEGVVIEIAGAVTHGMVGTAFLYTNKESITLGIGCLLSDFKNAGIAPYTLLEKLKAHPAIAPLIEGGEMKEYAAHLIPEGGYKAVPTLYGEGWMIAGDSAGLVNAVHREGSNLAMTSGRLAAETVIALKEMKLPCTAPHLARYKTALDDSFVMKDLRKYKELPDILHGNPHFFSVYPQLLNRAAHTMLMVDGQDKHSKEKTIRGSFVQQRSLWGLVGDAYRMWRATR
MAHHHHHHMKNCMMADQRGRSILQYQPIVGDEALEFSRGLAPSTFGFRYAAYMDRNHFLPSGRTAVKHIADPTLAYVMTRYRQCHDFVHIITGCGRSIEEELAVKIFEWKHTGLPLGLLSLLGGAPRLSAAQWAHIRLYWEWASRNAPSSRHGEPAVPMYLNVPWEDMLAKEYDEVVAYTGITPLPDFLEKRQKH
MGSDKIHHHHHHMHLDNEADHHSENKAEAPGIQPAVTRNVADISPQIAQCAVEWLVELQAADHDEATHEAFQRWLAAHPDHKLAWQHIETVNTRFNGLTSPLGSAVAKAVLTPRRSLKRRQIIKTLVVILFAGSTGWWADEKIPWRAWTADERTHIGQRRNITLADGSRVVLNTDTAINIRFTANERRLQLVRGEILVTTNQDSASIVRPFIVEIAQSELRPLGTRFTIHQQTTSNRLSVFEGAVEIRLRQDINYRHIVQAGEQVDFSNQGIHEIHPADDTSTAWSNGMIIASSMRLADFLAELDRHRPGKLNCDPAVADLRVSGTYPLTDPEDILDALQTTLPVKIQYFTRYWVTVRPAS
MGSDKIHHHHHHMSFKKSELLNVLDMAFKKEFGKGLSLISPQWGLIAMKISSSTKTNTYGWLGFFPKMREWVGERQIKKMQAQAMSIENKTFESTVSISRTDIEDDQAGLFAPVVQQAGQSAAELPDDLVFSLLAKGKSTLCYDGQNFFDTDHPVYENVDGTGSHKEQSNLTTGSASEHPTFYILDDTNAIKPFIWQERSAPEIETKFDPSRSDKVFMEDVYLWGVRARGNAGFGFWQLIHCVEETELTADAVMKVLAQMRMLKGDGGKLLNIRPSTILVPPALEFKARQLFEAEIINGSTNPLKGVLKVAVSAQIATA
MSSCSSLQSSSSRGASTDSLNTTSNGFSDGGSNLLPPKPNRIGCAATGAQSETDLRFVTSRDTHSSIPLNEPFGFGEKSPRAFMSENDLSAGAAGASTDFPEVTRTPSYLRISCALNGYTKSPNKSDLTPIAPHPPVSTMGESFVERRSRMFSQPQQRNPAPGFSSPLPPTTVSSQSASSEIEWSVEKF
MSGFFQRLFGKDNKPAIARGPLGLHLNSGFTLDTLAFRLLEDELLIALPGEEFTVAAVSHIDLGGGSQIFRYYTSGDEFLQINTTGGEDIDDIDDIKLFVYEESYGISKESHWREAINAKAMGAMTLNWQEKRWQRFFNSEEPGNIEPVYMLEKVENQNHAKWEVHNFTMGYQRQVTEDTYEYLLLNGEESFNDLGEPEWLFSRALGVDIPLTSLHIIG
MAHHHHHHMKDYNVTMEVFVQEPDDYVQDQRLLEEILNLTAHQALEAINKPLHEGVLSLSGNVGTMKEKDTITPLARGKPNGVLTQVPTEARREAEERLRREEEERLGGTQEMKFTFSGTIEDVLFRGEFRYKEMKLNDFLLLRFGGRGVVATNRSVLLEEFFKEPARYVPGARVLNEIKITVRYLRIEGTVREEMDLEEVVRMLHHESVFPLSNGRNMKEMTQPLPLQGEN
MGSDKIHHHHHHMIEANQILAKMKNQKINYDKVLRKIISQWERDGERPKILLHSCCAPCSTYTLEFLTQYADIAIYFANPNIHPKSEYLRRAKVQEQFVNDFNNKTGASVKYIEAEYEPHKFMKMAKDKGLTEEPEGGLRCTACFEMRLEIVAKAALEHGYDYFGSAITLSPKKNAQLINELGMDVQNIYNVKYLPSDFKKNKGYERSIEMCNDYNIFRQCYCGCVFAAMKQGIDFKQINKDAQAFLQQF
MGSDKIHHHHHHMLLHIPNVLNAEQLRIVRERLDTAGDAWVDGRATAGYQGAPVKRNQQIAEHTPIARELGDVILASIERNPLFISSVLPNQVYPPLFNRYEGGMQFGSHVDGAVRVLPNGVKLRTDVSVTLFISDPADYDGGELVIEDTYGVQQVKLPAGDMIVYPATSLHQVTPVTRGVRVASFFWVQSLVRSDTQRAMLFDMDTAIQRLNATNADDAARRSLVGIYHNLLRTWSEP
MEEDKNTLDLHTEAREEDRVAKAVALFKEGYNCSQSVVTAFADLYGFTREQALHMSASFGGGIGRMRETCGAACGMFLLAGLEKCAIEGKDRESKAANYALVQELAEEFKKRNGALRCADLLGLSGKEPVVSTPEARTERYYAKRPCARMVEEAARIWSEHLEKQKK
MGSDKIHHHHHHMSRIENQFTVQFWGVRGSIPSPGPHTVRYGGNTPCISMQAGDKRLVFDAGTGLHVLGQSWLRQMPLEGHIFFTHSHWDHMQGFPFFTPGFVKGNDFHIYGAIAPDGSTIEQRLNDQMLHPNFPVPLQIMQANLKFYDIRPGQPIHIDDVTVETAPLNHPGEAVGYRVNWRGGAVAYITDTEHFPDRLDDNVLWLARNADILVYDSTYTDEEYHSPKTPKIGWGHSTWQEAVKVAQAANVKTLVIYHHDPAHNDDFLDCVGQQASEKFPGAIMAREGMVLQIPTSVALSESFPVSKFST
MWESKFVKEGLTFDDVLLVPAKSDVLPREVSVKTVLSESLQLNIPLISAGMDTVTEADMAIAMARQGGLGIIHKNMSIEQQAEQVDKVKRSESGVISDPFFLTPEHQVYDAEHLMGKYRISGVPVVNNLDERKLVGIITNRDMRFIQDYSIKISDVMTKEQLITAPVGTTLSEAEKILQKYKIEKLPLVDNNGVLQGLITIKDIEKVIEFPNSAKDKQGRLLVGAAVGVTADAMTRIDALVKASVDAIVLDTAHGHSQGVIDKVKEVRAKYPSLNIIAGNVATAEATKALIEAGANVVKVGIGPGSICTTRVVAGVGVPQLTAVYDCATEARKHGIPVIADGGIKYSGDMVKALAAGAHVVMLGSMFAGVAESPGETEIYQGRQFKVYRGMGSVGAMEKGSKDRYFQEGNKKLVPEGIEGRVPYKGPLADTVHQLVGGLRAGMGYCGAQDLEFLRENAQFIRMSGAGLLESHPHHVQITKEAPNYSL

Soluble on expression in E. coli, soluble:
MPTNNAPQVAINDIGSAEDFLAAIDATIKYFNDGDIVEGTVVKVDRDEVLLDIGYKTEGVIPSRELSIKHDVDPDEVVEVGDQIDALVLTKEDKEGRLILSKKRAQYERAWGAIEELKEKDEPVTGTVIEVVKGGLIIDIGLRGFLPASLVEMRRVRDLDPYIGQELEAKIIELDKNRNNVVLSRRAFLEQTQSEVRSEFLHQLQKGQVRKGVVSSIVNFGAFVDLGGVDGLVHVSELSWKHIDHPSEVVTVGDEVTVEVLEVDLDRERVSLSLKATQEDPWRVFARTHAVGQIVPGKVTKLVPFGAFVRVEEGIEGLVHISELAQRHVEVPDQVVAVGEEVMVKVIDIDLERRRISLSLKQADEDYTEEFDPSKYGMADSYDEQGNYIFPEGFDAETNEWLEGFDEQRQAWEARYAESERRFTAHTAQIERRRQQAEEAAAEAPAGNYSTDSAEDAPAAEAVEESAGSLASDEQLAALREKLAGNLEHHHHHH
MAHHHHHHMPPLLTEVKPAGYRPQLRVCYLCGQQFGSASIGIHVPQCYQKKLSQWEVTDPAVRGPKPKHPDMVKWKGGNGASVEAINREQYQEFNSQLVACPHCARTFLPDRLPVHLRGCRGDGKVGVPSSKAKADGGGGSTPGGGKHKSEPRRAAGCRSLSPGPPLLPTCYLCGQQFGTASIGIHVPQCYEKKLAQWQNADPHSRGHPPKHPDTVNWRGRPGASPREQAEEQFQEFMNNLEECPNCSRRFLPERLVVHLRSCRPDNPPKPTSPRKAKTGGGARCPTPTTATTPADTAATKASIGGQTPRSEKQQRKQEPPTSSAGEDWIHPKRNRLTRHSTLPTESRVCPQCDAVEYDADAKFCRDCGHNFVPKPLSNSCQHCGERIPHGSRFCGTCGQPVQGASAHELTPGGPNKHASTVRRVVCPACEAISDADGNFCDNCGAALGDADLTPAPAAAGAAATPPSTRAGGSTEHKAVLYCAKCKETVEDTTAVFCEDCGGRLEALKVLTTKDDGPPLRADGTLPPSDVARLKVARASTPQRPSASEPAKTVTTPVASSVAPARPQTRNACTPIEEHTDEFPAYAEDDLVRVPCSHCGRQFASESLAKHERICCSQKKRRVFNATKQRLPEGATAAAKPSAGSQPAAPKRDWKAESESFRRALREARQVDQVLKAGGTAKDLPPPTYSTNPDYVPCPHCQRRFAPDVAARHIPRCANTVNRPKPPPRRR
GPHMADLFGDDIEEIPDTDFDFEGNLALFDKAAVFEEIDTYERR
SGIVVSPILIPENQRQPFPRDVGKVVDSDRPEGSKFRLTGKGVDQDPKGTFRINENTGSVSVTRTLDRETIATYQLYVETTDASGKTLEGPVPLEVIVID
SNSSPPPANSANGDTTNNGENGQDLNLNFLDKIRLSTKRDAKEDEGEELPTELNTINSAGGFLVVSPDKLSVKYTNTNLHGHDVGVVQANKPAPIKCLTYYFEIFVKDSGIKGQIAIGFTKESFKMRRQPGWEVNSCGYHGDDGYLYRGQGKGEPFGPKFTKDDAVGGGINYASQEFFFTKNGTIVGKIPKDIRGHLFPTVAVHSQNEEVLVNFGKKKFAFDIKGYEASERNKQQLAIEKISIPPNIGYGLVKTYLLHYGYEETLDAFNLATKNTVPPIHIDQENAIDEDDSSYALKQRKNLRQLVRNGEIDTALAELQKLYPQIVQDDKSVVCFLLHCQKFIELVRVGKLEEGVNYGRLELAKFVGLTGFQDIVEDCFALLAYEKPEESSVWYFLEDSQRELVADAVNAAILSTNPNKKDVQRSCHLQSHLEKLLRQLTVCCLERRSLNGDQGETFRLRHVLNNNR
RCGAGEPWGNATNLGVPCLHWDEVPPFLERSPPASWAELRGQPHNFCRSPDGAGRPWCFYRNAQGKVDWGYCDCGQG
MEVPEIEKQIGINLYSTDTTGLGGQLRQEIEDFIVKEITNREEGEEGKYLIVELTKRDWDTHHLTRTLSRILQVSQKRISVAGTKNKRALTTQKISIFDTDASEIEKIHLKDIELKVLGRSRKSVELGDLWGNDFRITVRNIENSPEETEALLKKTTDEILAQGGVPNFFGIQRFGSVRPVTHLVGKAIVEGNFEKAALLYIAEPFPEEPEETKNARQFVKDTLDFKEGLKTYPLRLGHERAMMNHLIANPEDYSGSFRVLPQNLYRMFVHGYQSYIYNIILCRRIEAGIPLNRAVEGDIVCFRNEVGLPDSSKTEKVTSETVNAMNRLLKLGRAFITAPLPGYNTEFASGIPGEIENGVLKELGVSLEGFNIEKFPEMSSKGTRREVLLEVKPKFEAGEDELNPGKSKAVLEFMLPKGSYATTVLREYMKVNPLQMSLEHHHHHH
